{"source": "patent US20150258211", "system": "GST-GFP fusion protein expressed from pJB-HTS-GFP (GST, hexa-histidine tag, thrombin cleavage site LVPRGS, GFP) [GST: P08515]", "sequence (P08515 whole entry, looked up, the tested form may be a part)": "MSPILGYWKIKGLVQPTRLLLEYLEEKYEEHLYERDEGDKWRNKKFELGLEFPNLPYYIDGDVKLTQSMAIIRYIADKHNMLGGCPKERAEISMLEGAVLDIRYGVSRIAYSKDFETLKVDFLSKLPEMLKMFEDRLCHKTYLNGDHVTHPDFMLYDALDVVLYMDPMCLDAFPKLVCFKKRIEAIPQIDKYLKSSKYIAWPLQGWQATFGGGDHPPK"}
{"substance": "thrombin", "values": [{"measurement": "Michaelis-Menten constant (Km) of thrombin cleavage of GST-GFP associated with PEGDA-GSH microspheres, SDS-PAGE densitometry", "value": "significantly increased from approximately 0.18 µM to 0.30 µM"}, {"measurement": "Michaelis-Menten constant (Km) of thrombin cleavage of free GST-GFP, SDS-PAGE densitometry", "value": "significantly increased from approximately 0.18 µM to 0.30 µM"}]}
